This test has as its target human thrombopoietin receptor (human c-Mpl) (human) (UniProt P40238). Kind of test: cell-based or functional assay.

With “PEG-rHuMGDF (pegylated recombinant human megakaryocyte proliferation and development factor) (from UniProt P40225 22-184) (ligand)”, the UT7/TPO (Max) amounted to 100%.

These data come from US20100004429A1.
